Values of other authors in patent publication US7759315B2, “Treatment of inflammatory conditions of the intestine” (CSL Behring AG, priority 2005, dated 2010).
Non-standard residues stand in square brackets, D forms with d. No end group written: not given here. Nal = naphthylalanine (source code Z); Aib = CC(C)(N)C(=O)O

Columns and labels:
[1] = percent helicity; for He (%): micelles
LCAT = target: T1, LCAT (Homo sapiens, UniProt P04180)
T1 sequence (P04180 25-440): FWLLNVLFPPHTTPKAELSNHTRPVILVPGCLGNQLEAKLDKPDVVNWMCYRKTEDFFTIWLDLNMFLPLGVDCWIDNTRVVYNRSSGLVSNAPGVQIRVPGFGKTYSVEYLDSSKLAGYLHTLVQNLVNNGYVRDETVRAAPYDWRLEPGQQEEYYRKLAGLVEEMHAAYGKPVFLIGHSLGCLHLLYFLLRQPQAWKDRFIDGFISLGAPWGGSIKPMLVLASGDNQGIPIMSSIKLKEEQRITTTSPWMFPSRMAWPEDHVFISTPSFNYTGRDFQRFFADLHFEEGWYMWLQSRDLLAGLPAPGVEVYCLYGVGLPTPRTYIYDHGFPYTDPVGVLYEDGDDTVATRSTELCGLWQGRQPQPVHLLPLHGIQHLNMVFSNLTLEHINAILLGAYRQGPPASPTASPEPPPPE

Infliximab
Crohn's disease activity index (CDAI) (Crohn's disease patients): significant reduction
histopathological and endoscopic inflammation (Crohn's disease patients): attenuation

PVLDEWREKLNEXLEALKQKLK (PVLDEWREKLNE[Aib]LEALKQKLK; not fully specified (C-terminus)) [Peptide 62]
He (%) [1]: 85%
ACTIVITY (%) LCAT (LCAT): 16%

pllellkellqellealkqklk ([dP][dL][dL][dE][dL][dL][dK][dE][dL][dL][dQ][dE][dL][dL][dE][dA][dL][dK][dQ][dK][dL][dK]; not fully specified (C-terminus); printed as pllellkellqellealkqklk) [Peptide 87]
He (%) [1]: 100%
ACTIVITY (%) LCAT (LCAT): 7%

PVLDLFRELLNELWEALKQKLK [Peptide 28]
He (%) [1]: 98%
ACTIVITY (%) LCAT (LCAT): 40%

PVLDAFRELLEALAQLKK [Peptide 223]
He (%) [1]: 56%
ACTIVITY (%) LCAT (LCAT): 8%

DWLKAFYDKVFEKFKEFF [Peptide 245]
He (%) [1]: 77%
ACTIVITY (%) LCAT (LCAT): 4%

pvldlfrellneXlealkqklk [Peptide 100]
He (%) [1]: 92%
ACTIVITY (%) LCAT (LCAT): 2%

DWLKAPYDKVAEKLKEAF (DWLKAFYDKVAEKLKEAF) [Peptide 244, 18A peptide (Anantharamiah et al., 1985), reference compound]
He (%) [1]: 40%
ACTIVITY (%) LCAT (LCAT): 5%

PVLDLFRELLNEXLEAWKQKLK (PVLDLFRELLNE[Aib]LEAWKQKLK; not fully specified (C-terminus)) [Peptide 38]
He (%) [1]: 49%
ACTIVITY (%) LCAT (LCAT): 29%

PVLDEFRELLNEXLEALKQKLK (PVLDEFRELLNE[Aib]LEALKQKLK; not fully specified (C-terminus)) [Peptide 91]
He (%) [1]: 100%
ACTIVITY (%) LCAT (LCAT): 6%

PVLDEFREKLNEXWEALKQKLK (PVLDEFREKLNE[Aib]WEALKQKLK; not fully specified (C-terminus)) [Peptide 42]
He (%) [1]: 74%
ACTIVITY (%) LCAT (LCAT): 25%

PVLDLFWELLNEXLEALKQKLK (PVLDLFWELLNE[Aib]LEALKQKLK; not fully specified (C-terminus)) [Peptide 51]
He (%) [1]: 82%
ACTIVITY (%) LCAT (LCAT): 20%

PVLDLFRELLWEXLEALKQKLK (PVLDLFRELLWE[Aib]LEALKQKLK; not fully specified (C-terminus)) [Peptide 50]
He (%) [1]: 84%
ACTIVITY (%) LCAT (LCAT): 21%

PVLDLFRELLNEXLWALKQKLK (PVLDLFRELLNE[Aib]LWALKQKLK; not fully specified (C-terminus)) [Peptide 72]
He (%) [1]: sp
ACTIVITY (%) LCAT (LCAT): 11%

pvldefreklneXlealkgklk ([dP][dV][dL][dD][dE][dF][dR][dE][dK][dL][dN][dE][Aib][dL][dE][dA][dL][dK][dQ][dK][dL][dK]) [Peptide 44]
He (%) [1]: 86%
ACTIVITY (%) LCAT (LCAT): 25%

PVLDLFRELWNELLEALKQKLK [Peptide 15]
He (%) [1]: 60%
ACTIVITY (%) LCAT (LCAT): 60%

PVLDLFRNLLEKLLEALEQKLK [Peptide 49]
He (%) [1]: 65%
ACTIVITY (%) LCAT (LCAT): 22%

PLLDLFRELLEELKQKLK* (not fully specified (N-terminus, C-terminus); printed as PLLDLFRELLEELKQKLK*) [Peptide 197]
He (%) [1]: 70%
ACTIVITY (%) LCAT (LCAT): 81%

PVLDLFREWLNELLEALKQKLK [Peptide 37]
He (%) [1]: 75%
ACTIVITY (%) LCAT (LCAT): 29%

PVLELFENLLERGLDALQKKLK [Peptide 154]
He (%) [1]: 76%
ACTIVITY (%) LCAT (LCAT): 39%

PVLDZFRELLNELLEALKQKLK (PVLD[Nal]FRELLNELLEALKQKLK; not fully specified (C-terminus)) [Peptide 34]
He (%) [1]: 67%
ACTIVITY (%) LCAT (LCAT): 32%

PLLELLKELLQELLEALKQKLK [Peptide 36]
He (%) [1]: 100%
ACTIVITY (%) LCAT (LCAT): 31%

pVLELFENLLERLLDALQKKLK ([dP]VLELFENLLERLLDALQKKLK; not fully specified (C-terminus); printed as pVLELFENLLERLLDALQKKLK) [Peptide 144]
He (%) free ([1]; free peptide): 89%
He (%) [1]: 88%
ACTIVITY (%) LCAT (LCAT): 111%

PVLELFENLLERLGDALQKKLK [Peptide 148]
He (%) [1]: 76%
ACTIVITY (%) LCAT (LCAT): 75%

PVLELFENWLERLLDALQKKLK [Peptide 162]
He (%) [1]: 83%
ACTIVITY (%) LCAT (LCAT): 27%

LDDLLQKWAEAFNQLLKK [Peptide 237, Id-3 peptide (Labeur et al., 1997), reference compound]
He (%) [1]: 66%
ACTIVITY (%) LCAT (LCAT): 11%

GVLELFENLLERLLDALQKKLK [Peptide 145]
He (%) [1]: 51%
ACTIVITY (%) LCAT (LCAT): 100%

PVLDLFRELLNWXLEALKQKLK (PVLDLFRELLNW[Aib]LEALKQKLK; not fully specified (C-terminus)) [Peptide 101]
He (%) [1]: sp
ACTIVITY (%) LCAT (LCAT): 2%

PVLDLFRELLNELZEALKQKLK (PVLDLFRELLNEL[Nal]EALKQKLK; not fully specified (C-terminus)) [Peptide 27]
He (%) [1]: 92%
ACTIVITY (%) LCAT (LCAT): 44%
